5 molecules from patent publication US20140378537A1 (Genentech, published 2014) can be followed below.

B2: murine IRF-4 (other)
chain: MNLETGSRGSEFGMSAVSCGNGKLRQWLIDQIDSGKYPGLVWENEEKSVFRIPWKHAGKQDYNREEDAALFKAWALFKGKFREGIDKPDPPTWKTRLRCALNKSNDFEELVERSQLDISDPYKVYRIVPEGAKKGAKQLTLDDTQMAMGHPYPMTAPYGSLPAQQVHNYMMPPHDRSWRDYAPDQSHPEIPYQCPVTFGPRGHHWQGPSCENGCQVTGTFYACAPPESQAPGIPIEPSIRSAEALALSDCRLHICLYYRDILVKELTTTSPEGCRISHGHTYDVSNLDQVLFPYPDDNGQRKNIEKLLSHLERGLVLWMAPDGLYAKRLCQSRIYWDGPLALCSDRPNKLERDQTCKLFDTQQFLSELQVFAHHGRPAPRFQVTLCFGEEFPDPQRQRKLITAHVEPLLARQLYYFAQQNTGHFLRGYELPEHVTTPDYHRSLRHSSIQE
notes: Transcription factor; Expressed from CMV vectors encoding murine IRF-4 in 293T cells and used as nuclear extract, or endogenous in mouse Th17 nuclear extracts; also called Pip
B4: murine BATF (other, UniProt O35284 1-125, looked up)
chain: MPHSSDSSDSSFSRSPPPGKQDSSDDVRKVQRREKNRIAAQKSRQRQTQKADTLHLESEDLEKQNAALRKEIKQLTEELKYFTSVLSSHEPLCSVLASGTPSPPEVVYSAHAFHQPHISSPRFQP
notes: AP-1 family transcription factor, used as nuclear extract

The target of assay [1] is T1, BATF/JunB heterodimer (murine, UniProt O35284 1-125; P09450 1-344).
T1 construct: Formed by mixing 293T nuclear extracts, or endogenous in Th17 nuclear extracts; also called BATF/JunB complex
T1 sequence (looked up) 1: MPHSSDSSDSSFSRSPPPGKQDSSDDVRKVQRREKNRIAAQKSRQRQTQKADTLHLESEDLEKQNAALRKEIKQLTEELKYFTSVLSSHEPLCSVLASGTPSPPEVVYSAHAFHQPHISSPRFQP
T1 sequence (looked up) 2: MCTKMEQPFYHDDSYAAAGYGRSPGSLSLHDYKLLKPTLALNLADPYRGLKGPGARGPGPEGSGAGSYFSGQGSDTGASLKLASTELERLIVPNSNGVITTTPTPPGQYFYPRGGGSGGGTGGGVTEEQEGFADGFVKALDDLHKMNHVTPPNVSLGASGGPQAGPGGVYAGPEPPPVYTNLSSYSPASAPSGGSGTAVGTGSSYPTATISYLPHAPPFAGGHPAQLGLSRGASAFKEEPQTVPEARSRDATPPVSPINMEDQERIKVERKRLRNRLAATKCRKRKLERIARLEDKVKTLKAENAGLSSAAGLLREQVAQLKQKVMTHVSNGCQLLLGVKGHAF
In words: EMSA on Bcl11b AICE DNA probe, 293T nuclear extracts. An excerpt:
(§1) (a-d) EMSAs using the Bcl11b probe and 293T nuclear extracts as a source of indicated proteins (a) c-Jun, BATF, IRF-4, (b) FosL2, JunB, IRF-4, (c) JunB, BATF, IRF-8 or (d) JunB, BATF, IRF-3 (e) EMSA using an ISRE containing probe and IRF-3 or IRF-4. Complexes were supershifted with indicated antibodies. Red and green arrows mark the ternary and quaternary protein-DNA complexes, respectively as in FIG. 1d. Data are representative of at least two independent experiments. (f-h) Th0 cells and Th2 cells differentiated in vitro (42 hours) and LPS-activated dendritic cells (6 hours) were subjected to chromatin crosslinking and immunoprecipitation with antibodies directed against IRF-4. Immunoprecipitated chromatin was deep sequenced and analyzed as in FIG. 3a.
(§2) Nuclear extracts were prepared from 293T cells (2×107), 48 hours after their transfection or from Th17 cells (8×107), 42 hours after their activation and differentiation. […]

The next assay deals with T2, JunB/FosL2 heterodimer (murine, UniProt P09450 1-344; P47930 1-326).
T2 construct: also called FosL2/JunB heterodimer
T2 sequence (looked up) 1: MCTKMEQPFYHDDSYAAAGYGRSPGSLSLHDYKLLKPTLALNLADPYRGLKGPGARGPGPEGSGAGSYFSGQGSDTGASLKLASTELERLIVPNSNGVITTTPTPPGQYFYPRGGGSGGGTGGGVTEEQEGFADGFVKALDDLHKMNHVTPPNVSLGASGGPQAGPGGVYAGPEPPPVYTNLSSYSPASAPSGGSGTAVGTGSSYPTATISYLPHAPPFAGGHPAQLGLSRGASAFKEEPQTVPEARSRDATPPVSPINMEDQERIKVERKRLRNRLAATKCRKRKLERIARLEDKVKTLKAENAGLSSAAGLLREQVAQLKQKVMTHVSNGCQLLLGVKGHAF
T2 sequence (looked up) 2: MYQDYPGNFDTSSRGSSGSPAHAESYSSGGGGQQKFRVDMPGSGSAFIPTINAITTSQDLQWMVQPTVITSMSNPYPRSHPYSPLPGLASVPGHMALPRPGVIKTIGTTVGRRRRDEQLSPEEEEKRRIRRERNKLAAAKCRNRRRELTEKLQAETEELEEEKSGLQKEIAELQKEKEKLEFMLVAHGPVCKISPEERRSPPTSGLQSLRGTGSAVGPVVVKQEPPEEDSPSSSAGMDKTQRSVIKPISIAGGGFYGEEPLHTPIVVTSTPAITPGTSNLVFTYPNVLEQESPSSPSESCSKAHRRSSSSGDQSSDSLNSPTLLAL
Put plainly: EMSA on AICE DNA probes, 293T nuclear extracts.
Source text: as §1, §2

Another assay addresses T3, c-Jun/BATF heterodimer (murine, UniProt P05627 1-334; O35284 1-125).
T3 construct: also called BATF/cJun
Put plainly: EMSA, 293T nuclear extracts, AICE probes.
Source text: as §1, §2
On the technique in general: Mobility shift assays separate free from complexed probe on a gel.

In the assay “murine BATF” the target is B4. Put plainly: cell-based or functional assay.
The next assay has as its target T4, His-tagged IRF4 (murine, UniProt Q64287 1-450).
T4 construct: not shown: His tag
T4 sequence: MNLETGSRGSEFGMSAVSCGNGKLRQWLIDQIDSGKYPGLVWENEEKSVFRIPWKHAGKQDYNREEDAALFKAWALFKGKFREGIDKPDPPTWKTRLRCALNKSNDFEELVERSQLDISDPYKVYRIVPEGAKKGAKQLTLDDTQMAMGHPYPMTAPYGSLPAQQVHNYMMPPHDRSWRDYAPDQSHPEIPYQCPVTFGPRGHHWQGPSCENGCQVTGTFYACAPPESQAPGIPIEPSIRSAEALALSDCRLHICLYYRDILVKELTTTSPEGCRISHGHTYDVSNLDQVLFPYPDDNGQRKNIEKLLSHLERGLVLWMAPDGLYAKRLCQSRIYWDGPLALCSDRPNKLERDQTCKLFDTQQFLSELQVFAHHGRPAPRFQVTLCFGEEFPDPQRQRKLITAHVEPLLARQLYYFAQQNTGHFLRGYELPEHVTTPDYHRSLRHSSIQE
Put plainly: EMSA, 293T nuclear extracts, CTLA-4 and Bcl11b AICE DNA probes (DNA-dependent ternary complex). As for the experimental part:
Positions of various protein/DNA complexes are indicated. Nuclear extracts were incubated with either the wild type Bcl11b or CTLA-4 probes or their indicated mutant counterparts in which either the IRF or AP-1 site or both were altered.
(§3) Nuclear extracts were prepared from 293T cells (2×107), 48 hours after their transfection or from Th17 cells (8×107), 42 hours after their activation and differentiation. Cells were incubated for 10 min in 1 ml of hypotonic buffer (10 mM Hepes pH7.6, 10 mM KCl, 0.1 mM EGTA, 1.5 mM MgCl, 1 mM DTT, 0.5 mM PMSF and the complete protease inhibitor mixture (Roche, #11697498001) and then lysed with the addition of 0.01% Triton-x-100. After centrifugation at maximum speed in an Eppendorf microfuge for 15 seconds the nuclear pellet was resuspended in 80 μl of the following buffer (420 mM NaCl, 20 mM Hepes pH7.9, 0.2 mM EDTA, 25% Glycerol, 1 mM DTT, 0.5 mM PMSF with complete protease inhibitor mixture). Nuclear proteins were extracted with intermittent vortexing and incubation for 15 minutes at […]. In-vitro binding assays were performed using reagents from the light-shift chemiluminescent EMSA kit (Thermo scientific) according to the manufacturer's protocol, with the exception of using FAMlabeled probes (Table 2, below). Protein-DNA complexes were resolved using 6%-TBE Gels (Invitrogen) at 100V and imaged with a Typhoon Trio Imager (Amersham Biosciences). […]

A further assay deals with T5, murine JunB (murine, UniProt P09450 1-344).
T5 construct: AP-1 family transcription factor, used as nuclear extract
T5 sequence (looked up): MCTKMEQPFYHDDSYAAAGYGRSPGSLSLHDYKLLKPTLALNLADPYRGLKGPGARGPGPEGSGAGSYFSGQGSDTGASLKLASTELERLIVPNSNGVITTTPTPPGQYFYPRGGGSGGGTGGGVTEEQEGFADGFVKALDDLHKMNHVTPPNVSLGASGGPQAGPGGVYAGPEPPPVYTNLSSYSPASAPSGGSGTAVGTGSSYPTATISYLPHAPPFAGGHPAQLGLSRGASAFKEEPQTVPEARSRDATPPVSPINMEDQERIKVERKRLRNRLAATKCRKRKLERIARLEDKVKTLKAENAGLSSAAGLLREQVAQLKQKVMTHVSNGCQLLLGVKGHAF
In words: EMSA supershift, Th17 nuclear extracts, IRF-site-mutated AICE probes.

For the assay “murine IRF-4”, the target named is B2. In words: EMSA, Th17 nuclear extracts, Bcl11b and CTLA-4 probes. On the procedure:
as §3

In assay [2] the target is T1, BATF/JunB heterodimer. In words: EMSA, 293T nuclear extracts, AICE probes.
Source text: as §1, §2

T3 sequence (P05627 whole entry, one chain of several): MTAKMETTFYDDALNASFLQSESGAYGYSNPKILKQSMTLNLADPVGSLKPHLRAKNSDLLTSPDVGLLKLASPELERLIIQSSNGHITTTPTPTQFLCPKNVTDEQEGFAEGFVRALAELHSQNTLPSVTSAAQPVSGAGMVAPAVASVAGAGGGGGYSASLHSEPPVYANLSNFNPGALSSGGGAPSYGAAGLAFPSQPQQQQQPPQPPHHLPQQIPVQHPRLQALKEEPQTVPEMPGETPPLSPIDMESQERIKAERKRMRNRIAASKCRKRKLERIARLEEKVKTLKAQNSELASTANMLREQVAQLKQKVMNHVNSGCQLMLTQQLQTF

B1: murine IRF-3 (other, UniProt P70671 1-419, looked up)
chain: METPKPRILPWLVSQLDLGQLEGVAWLDESRTRFRIPWKHGLRQDAQMADFGIFQAWAEASGAYTPGKDKPDVSTWKRNFRSALNRKEVLRLAADNSKDPYDPHKVYEFVTPGARDFVHLGASPDTNGKSSLPHSQENLPKLFDGLILGPLKDEGSSDLAIVSDPSQQLPSPNVNNFLNPAPQENPLKQLLAEEQWEFEVTAFYRGRQVFQQTLFCPGGLRLVGSTADMTLPWQPVTLPDPEGFLTDKLVKEYVGQVLKGLGNGLALWQAGQCLWAQRLGHSHAFWALGEELLPDSGRGPDGEVHKDKDGAVFDLRPFVADLIAFMEGSGHSPRYTLWFCMGEMWPQDQPWVKRLVMVKVVPTCLKELLEMAREGGASSLKTVDLHISNSQPISLTSDQYKAYLQDLVEDMDFQATGNI
notes: Used as 293T nuclear extract
B1: the binding result in the assay with BATF/JunB heterodimer [1] is “no binding”.
In the case of B2, the binding result with JunB/FosL2 heterodimer is on record as “no binding”. In addition, the binding result in the assay with c-Jun/BATF heterodimer is listed as “binds”. For the same molecule, in the assay with murine BATF, the “CTLA-4 levels (intracellular, flow cytometry) in T cells transduced with IRF4 and/or BATF retroviruses” value amounted to 3 fold; the “ICOS levels (surface expression, flow cytometry) in Th0 cells transduced with IRF4 and/or BATF retroviruses” value was around 6 fold; the “frequency of IL-17A producing cells by intracellular flow cytometry” value turned out to be 2 fold.

B3: Flag-tagged BATF (other, murine, UniProt O35284 1-125, looked up)
chain: MPHSSDSSDSSFSRSPPPGKQDSSDDVRKVQRREKNRIAAQKSRQRQTQKADTLHLESEDLEKQNAALRKEIKQLTEELKYFTSVLSSHEPLCSVLASGTPSPPEVVYSAHAFHQPHISSPRFQP
notes: not shown: Flag tag
For B3, the binding result with His-tagged IRF4 was “binds”.
In the case of B4, the binding result in the assay with murine JunB and with murine IRF-4 was “binds” each time.

B5: murine IRF-8 (other)
chain: MCDRNGGRRLRQWLIEQIDSSMYPGLIWENDEKTMFRIPWKHAGKQDYNQEVDASIFKAWAVFKGKFKEGDKAEPATWKTRLRCALNKSPDFEEVTDRSQLDISEPYKVYRIVPEEEQKCKLGVAPAGCMSEVPEMECGRSEIEELIKEPSVDEYMGMTKRSPSPPEACRSQILPDWWVQQPSAGLPLVTGYAAYDTHHSAFSQMVISFYYGGKLVGQATTTCLEGCRLSLSQPGLPKLYGPDGLEPVCFPTADTIPSERQRQVTRKLFGHLERGVLLHSNRKGVFVKRLCQGRVFCSGNAVVCKGRPNKLERDEVVQVFDTNQFIRELQQFYATQSRLPDSRVVLCFGEEFPDTVPLRSKLILVQVEQLYARQLVEEAGKSCGAGSLMPALEEPQPDQAFRMFPDICTSHQRPFFRENQQITV
notes: Expressed from a CMV vector encoding murine IRF-8 in 293T cells and used as nuclear extract; also called ICSBP
Consider B5, for which the binding result in the assay with BATF/JunB heterodimer [2] is “binds”.
